According to patent US20230234997A1, “Compositions and Methods for the Treatment of Synucleinopathies” (SOLA BIOSCIENCES LLC, priority 2020, published 2023):
Residues, ends and D or L forms follow the SMILES beside them. *: point of attachment. Cbz = O=C(OCc1ccccc1)*

Experiments:
Format in all cases: cell-based
[1] = molecular target: T1, mutant (A53T) α-synuclein (Homo sapiens, UniProt P37840, A53T); experiment: Immunoblot of total α-synuclein in lysates of transfected HEK293 cells
T1 construct: expressed in transfected cells; host or cells: HEK293
Description: (§1) FIG. 3A: Wild type (WT) α-synuclein (Syn(WT): bars 1-3) or mutant α-synuclein (Syn(A53T): bars 4-6) was expressed alone or with a Flag epitope-tagged fusion protein comprising the J-domain DnaJB1 and a α-synuclein-binding domain (J-SynBP1: bars 2 and 5) or a control fusion protein construct comprising a mutated J-domain (containing a P33Q substitution) and a α-synuclein-binding peptide (J(MT)-SynBP1: bars 3 and 6) in HEK293 cells. Two days later, cells were homogenized in Tris buffer (10 mM Tris, pH7.4, 140 mM NaCl, 1 mM EDTA supplemented with protease inhibitor cocktail). Aggregation of mutant α-synuclein levels were quantified with sandwich ELISA, in which aggregated α-synuclein proteins were captured by coated-Syn-O4 antibody, followed by detection with HRP-conjugated anti-α-synuclein antibody (BioLegend: A15115A). FIG. 3B Lysates were prepared from HEK293 cells transiently transfected with wildtype Syn(WT) (lanes 1-3) or mutant Syn(A53T) (lane 4-6) alone or co-expressed with the fusion protein constructs. After brief sonication, the cell lysate was subjected to SDS-PAGE/immuno blotting with anti-α-synuclein antibody (Ab-2: top panel), Flag antibody (middle panel) or anti-Tubulin antibody (bottom panel).
Cells were transfected with either wildtype (lane 2) or mutant (lanes 3-8) α-synuclein, and also transfected with the JB1-SynBP1 fusion protein (lanes 4-8). […]
(§2) Expression vector plasmids encoding various protein constructs were transfected into HEK293 cells with Lipofectamine 3000 transfection reagent (Thermo Fisher Scientific). Cell lysates were analyzed for expressed proteins using immunoblot assays. […] After brief sonication, the samples were analyzed for expressed proteins using immunoblot assays. […]
(§3) Expressed proteins were detected using a chemiluminescent signal. […]
Expression vector plasmids encoding various protein constructs were transfected into HEK293 cells with Lipofectamine 3000 transfection reagent (Thermo Fisher Scientific). […] After brief sonication, cell lysates were analyzed in ELISA or immunoblotting assay.

[2] = molecular target: T1, mutant (A53T) α-synuclein; experiment: ELISA of aggregated α-synuclein (Syn-O4 capture) in lysates of transfected HEK293 cells
Description: Cells were also treated with either Bafilomycin A1, an inhibitor of late phase autophagy (10 nM and 100 nM), or MG132, a proteasome inhibitor (0.1 μM and 1 μM). Aggregated synuclein in cell lysates were determined by ELISA using an anti-aggregated synuclein antibody.
Expression vector plasmids encoding various protein constructs were transfected into HEK293 cells with Lipofectamine 3000 transfection reagent (Thermo Fisher Scientific). One day after transfection, culture medium was replaced with fresh medium containing bafilomycin al (BFA) or MG132, and cells were incubated for additional 48 hours. Cells were lysed in lysis buffer (20 mM Tris, pH 7.4, 150 mM NaCl, 1 mM EDTA, 0.1% NP-40) supplemented with protease inhibitor cocktail (Complete Protease Inhibitor Cocktail; Sigma) and 2 mM PMSF. After brief sonication, cell lysates were analyzed in ELISA or immunoblotting assay.
The aggregation status of expressed α-synuclein was monitored with α-synuclein aggregate-specific antibody Syn-O4 (BioLegend). Syn-O4 is a conformation-specific monoclonal antibody that recognizes specifically α-synuclein aggregates but not the soluble, monomeric form of the protein^58. Microtiter plate wells were coated with Syn-O4 overnight at 4° C., and after coating, the wells were washed three times with PBS, blocked for one hour with PBS containing 1% BSA, and washed again with PBS. […]

wildtype α-synuclein [3] = molecular target: T2, wildtype α-synuclein (Homo sapiens, UniProt P37840); experiment: Immunoblot of total α-synuclein in lysates of transfected HEK293 cells; settings: wildtype Syn(WT), lanes 1-3
T2 construct: expressed in transfected cells; host or cells: HEK293
Description: as §1, with “FIG. 3B Lysates were prepared from HEK293 cells transiently transfected with wildtype Syn(WT) (lanes 1-3) or mutant Syn(A53T) (lane 4-6) alone or co-expressed with the fusion protein constructs. After brief sonication, the cell lysate was subjected to SDS-PAGE/immuno blotting with anti-α-synuclein antibody (Ab-2: top panel), Flag antibody (middle panel) or anti-Tubulin antibody (bottom panel).” left out
as §2, §3

wildtype α-synuclein [4] = molecular target: T2, wildtype α-synuclein; experiment: ELISA of aggregated α-synuclein (Syn-O4 capture) in lysates of transfected HEK293 cells; settings: co-expression with wildtype α-synuclein, ELISA on cell lysates, bars 1-3
Description: as §1, with “FIG. 3B Lysates were prepared from HEK293 cells transiently transfected with wildtype Syn(WT) (lanes 1-3) or mutant Syn(A53T) (lane 4-6) alone or co-expressed with the fusion protein constructs. After brief sonication, the cell lysate was subjected to SDS-PAGE/immuno blotting with anti-α-synuclein antibody (Ab-2: top panel), Flag antibody (middle panel) or anti-Tubulin antibody (bottom panel).” left out
as §2
The aggregation status of expressed α-synuclein was monitored with α-synuclein aggregate-specific antibody Syn-O4 (BioLegend). […]

[5] = molecular target: T3, mutant (A53T) α-synuclein phosphorylated at Ser129 (Homo sapiens, UniProt P37840, A53T); experiment: Level of phosphorylated α-synuclein (Ser129) on co-expression of fusion protein constructs; settings: Table 13, wildtype alone = 100%, mutant alone = 92.1%
T3 construct: expressed in transfected cells

[6] = HEK293, BFA at either 10 nM or 100 nM
[7] = HEK293, MG132 (0.1 μM and 1 μM)

CO/C1=C\C(C)=C\[C@@H](C)[C@@H](O)[C@@H](C)C/C(C)=C/C=C/[C@H](OC)[C@@H]([C@@H](C)[C@@H](O)[C@H](C)[C@@]2(O)C[C@@H](O)[C@H](C)[C@@H](C(C)C)O2)OC1=O [BFA, Bafilomycin A1, reference compound]
effect of inhibitor on total α-synuclein in cells expressing mutant α-synuclein and construct 1 [1, 6]: restoration of total and aggregated α-synuclein to levels matching cells expressing mutant α-synuclein alone | effect of inhibitor on aggregated α-synuclein in cells expressing mutant α-synuclein and construct 1 [2, 6]: restoration of total and aggregated α-synuclein to levels matching cells expressing mutant α-synuclein alone

CC(C)C[C@@H](C=O)NC(=O)[C@H](CC(C)C)NC(=O)[C@H](CC(C)C)NC(=O)OCc1ccccc1 [MG132, reference compound] (Cbz-Leu-Leu-Leu-aldehyde)
effect of inhibitor on total level of α-synuclein in cells expressing mutant α-synuclein and construct 1 [1, 7]: little effect | effect of inhibitor on aggregated level of α-synuclein in cells expressing mutant α-synuclein and construct 1 [2, 7]: little effect

Construct 2: Same as construct 1, but containing a P33Q mutation within the J domain (control)
overall level of α-synuclein (FIG. 3B, Western blot) ([1]; HEK293 cells, mutant Syn(A53T), lanes 4-6): relatively similar levels | overall level of α-synuclein (FIG. 3B, Western blot) (wildtype α-synuclein [3]): relatively similar levels | amount of detectable aggregated α-synuclein (FIG. 3A) (wildtype α-synuclein [4]): higher overall aggregation

Construct 10: J domain from human DnaJB1 fused to 4XGGGGS linker, in turn, fused on its C-terminus to QBP1
ability to reduce mutant (A53T) synuclein aggregation (Table 11) ([2]; Mutant (A53T)): potently reduce α-synuclein aggregation

Construct 11: J domain from human DnaJB1 fused on its C-terminus to SynBP1 (with flexible GGGGS linker)
Phosphorylated α-synuclein [5]: 19.1%

Construct 12: J domain from human DnaJB1 fused on its C-terminus to SynBP1 (with rigid EAAAK linker)
Phosphorylated α-synuclein [5]: 23.1%

Construct 13: J domain from human DnaJB1 fused on its C-terminus to SynBP1 (no linker)
Phosphorylated α-synuclein [5]: 4.5%
